Laboratory results as given in paper PMC3214066.

Target: Collagen S (soluble, type I, from calf skin) (calf) (UniProt P02453)
Experiment: radioligand binding; collagen I monomers (5 µg/mL in 1% acetic acid + 1% NaCl) coated on 96-well plates, blocked with 1% BSA; 125I-labelled A1M (50×10^3 cpm) with increasing unlabelled A1M in PBS + 0.05% Tween, overnight at 4°C; Scatchard analysis

UniProt P02453, sequence (P02453 162-1217, chain 1 of 2): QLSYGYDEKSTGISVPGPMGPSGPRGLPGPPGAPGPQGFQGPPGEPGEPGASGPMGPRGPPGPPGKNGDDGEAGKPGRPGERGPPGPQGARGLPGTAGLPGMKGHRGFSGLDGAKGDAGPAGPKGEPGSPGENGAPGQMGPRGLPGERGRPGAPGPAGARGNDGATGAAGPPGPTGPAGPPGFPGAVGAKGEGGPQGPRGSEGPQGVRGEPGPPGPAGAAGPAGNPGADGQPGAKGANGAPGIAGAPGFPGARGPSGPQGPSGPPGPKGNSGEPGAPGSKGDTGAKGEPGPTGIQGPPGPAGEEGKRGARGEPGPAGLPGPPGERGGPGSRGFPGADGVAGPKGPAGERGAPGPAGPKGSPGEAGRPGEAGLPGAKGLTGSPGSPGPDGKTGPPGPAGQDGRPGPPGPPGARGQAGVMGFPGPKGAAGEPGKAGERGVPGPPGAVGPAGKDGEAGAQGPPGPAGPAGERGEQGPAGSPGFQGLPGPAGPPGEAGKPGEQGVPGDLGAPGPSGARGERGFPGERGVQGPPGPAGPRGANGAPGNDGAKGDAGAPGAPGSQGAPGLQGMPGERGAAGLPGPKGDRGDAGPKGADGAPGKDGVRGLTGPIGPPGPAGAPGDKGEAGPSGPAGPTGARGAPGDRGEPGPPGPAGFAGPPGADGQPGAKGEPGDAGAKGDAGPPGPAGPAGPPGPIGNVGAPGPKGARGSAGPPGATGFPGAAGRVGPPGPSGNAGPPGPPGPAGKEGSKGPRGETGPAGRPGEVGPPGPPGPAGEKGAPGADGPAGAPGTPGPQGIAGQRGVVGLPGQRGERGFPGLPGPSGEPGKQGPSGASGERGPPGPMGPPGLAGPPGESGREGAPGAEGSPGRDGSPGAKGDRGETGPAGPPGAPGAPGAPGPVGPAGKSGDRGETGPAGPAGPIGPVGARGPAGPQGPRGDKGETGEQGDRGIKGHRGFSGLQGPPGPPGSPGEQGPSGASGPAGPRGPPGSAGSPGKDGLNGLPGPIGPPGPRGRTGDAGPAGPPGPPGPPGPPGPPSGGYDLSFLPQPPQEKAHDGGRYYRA
UniProt P02453, sequence (P02465 80-1117, chain 2 of 2, further chain): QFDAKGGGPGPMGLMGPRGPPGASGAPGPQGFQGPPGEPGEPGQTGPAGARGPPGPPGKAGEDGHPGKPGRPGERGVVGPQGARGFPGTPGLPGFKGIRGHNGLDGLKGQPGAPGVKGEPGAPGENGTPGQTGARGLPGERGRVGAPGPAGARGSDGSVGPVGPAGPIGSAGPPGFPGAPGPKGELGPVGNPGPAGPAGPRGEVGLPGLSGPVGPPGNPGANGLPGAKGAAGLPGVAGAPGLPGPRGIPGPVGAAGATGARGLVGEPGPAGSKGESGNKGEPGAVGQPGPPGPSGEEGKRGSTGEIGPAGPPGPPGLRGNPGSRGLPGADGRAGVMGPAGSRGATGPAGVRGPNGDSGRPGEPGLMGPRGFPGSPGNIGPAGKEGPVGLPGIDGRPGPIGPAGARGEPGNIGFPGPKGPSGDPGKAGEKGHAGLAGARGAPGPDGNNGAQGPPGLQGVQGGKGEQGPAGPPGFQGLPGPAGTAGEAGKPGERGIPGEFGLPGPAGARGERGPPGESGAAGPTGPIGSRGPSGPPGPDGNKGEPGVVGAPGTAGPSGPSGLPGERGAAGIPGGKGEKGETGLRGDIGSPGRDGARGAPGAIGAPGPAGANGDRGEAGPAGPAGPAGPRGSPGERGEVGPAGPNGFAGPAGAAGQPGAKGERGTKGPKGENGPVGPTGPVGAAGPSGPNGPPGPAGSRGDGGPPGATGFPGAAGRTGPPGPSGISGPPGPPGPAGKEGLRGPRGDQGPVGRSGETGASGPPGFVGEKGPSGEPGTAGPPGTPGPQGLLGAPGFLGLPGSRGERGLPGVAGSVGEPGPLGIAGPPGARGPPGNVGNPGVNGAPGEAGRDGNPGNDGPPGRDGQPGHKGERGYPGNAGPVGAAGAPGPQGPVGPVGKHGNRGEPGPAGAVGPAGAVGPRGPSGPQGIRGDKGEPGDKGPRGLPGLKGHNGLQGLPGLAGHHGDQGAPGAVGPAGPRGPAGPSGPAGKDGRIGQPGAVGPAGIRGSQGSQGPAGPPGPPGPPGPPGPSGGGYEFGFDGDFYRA

B1: Recombinant human α1-microglobulin (A1M) (natural protein)
chain: GPVPTPPDNIQVQENFNISRIYGKWYNLAIGSTCPWLKKIMDRMTVSTLVLGEGATEAEISMTSTRWRKGVCEETSGAYEKTDTDGKFLYHKSKWNITMESYVVHTNYDEYAIFLTKKFSRHHGPTITAKLYGRAPQLRETLLQDFRVVAQGVGIPEDSIFTMADRGECVPGEQEPEPILIPRV
modifications: 125I label (chloramine T method) on the tracer in the solid phase binding assay; colloidal gold label (4-5 nm) in the electron microscopy binding experiment
  Kd: 960 nM
